Assay results reported in the supplement of paper PMC9170038.

These sequences were tested on MS2 coat protein (assay: apparent KD of MS2 coat protein; higher = weaker reporter binding). Settings: Eterna round: R107; input ligand: none.
In short: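 Designed RNA switches, transcribed on-chip from Illumina sequencing clusters, were titrated with SNAP-549-labelled MS2 coat protein from 0.7 or 1.5 nM to 3 µM in twofold steps. The solution was 100 mM Tris-HCl pH 7.5, 80 mM KCl, 4 mM MgCl2, with constant ligand or without it. Apparent KD is the median over each design's normalised cluster binding-curve fits.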
With “UUGGGUUUGUGAAGGAGCGGGUAUGUUUUCUAGUGGAUCCUAACAUGAGGAUCACCCAUGUCCCAGGUAGGUCGCGCGGGUUUGG [12.U]” the “apparent KD of MS2 coat protein” value was 117 nM. “UGCCGAGACGUGGAUUACCCAUGUACAGAAGGAGCGCCCGAAAGGGCAGGUAGGUCGCUGAGGACAUGAGGAUCACCCAUGUCGA” was tested, and the “apparent KD of MS2 coat protein” value was 54.8 nM. In the case of “ACGUAUGUCAGAAGGAGCGUCAAUAACAUGAGGAUCACCCAUGUAUUACAUAGGUAUAAUAGACAGGUAGGUCGCUGAAUUCGAA [JR_SSArginiB_Sub022]”, the “apparent KD of MS2 coat protein” value is reported as 29.2 nM. “GCUACAUGAGGAUCACCCAUGUGUACUGAAGGAGCGGCGGAAACGCCAGGUAGGUCGCAGUAUGUGGCUCUGGGCACGAGAUGGC [SSAA NP+V+V2 #1]” was tested, and the “apparent KD of MS2 coat protein” value was 33.6 nM. In the case of “ACGUCAUGGAGAACGUGACGACUUGUCGAUACCAGUGUUUGAUAGCGCCCUUGGCAGCGAACAUGAGGAUCACCCAUGUCAAGGG [#11 SameState-TheophyllineA]”, the “apparent KD of MS2 coat protein” value is reported as 72.8 nM. For “GAGACAUCGGGAAGGAGCGCAUCCAAACCACACAUGAGGAUCACCCAUGUAUAAAUAUGCAUGCAGGUAGGUCGCCCGGUAUCCC [Tiisqure]”, the “apparent KD of MS2 coat protein” value was 27.8 nM. With “CCUAUGCAGUCGGCCGCCACUGAGUCCUCAAUAAUAAAUUAUUAUACAUGAGGAUCACCCAUGUACAGGACCGGGACUGUAUAGG [Ex Tryptophan B 14]” the “apparent KD of MS2 coat protein” value was 122 nM. With “CACGAAAGAUCGGCCGCCACUAGCCUGUGUGUACUAGCACAUGAGGAUCACCCAUGUUCUUGCGUUAGGACCGGGAUUGAGCGUG [#05 Exclusion Tryptophan B]” the “apparent KD of MS2 coat protein” value was 26.8 nM. With “CAGUCAGUCAGUCAAUGAGUGAGGCAUGAAGGAGCGUGGGAAACCACAGGUAGGUCGCAUGCGAAACAUGAGGAUCACCCAUGUU [SSArg A #3]” the “apparent KD of MS2 coat protein” value was 47.9 nM. For “UUAAUCUUGGUUGAAAACAAUUAAGCAGAAGGAGCGUGAUAAAACACAGGUAGGUCGCUGAAGGGAACAUGAGGAUCACCCAUGU [AstrosSSArgA#14]”, the “apparent KD of MS2 coat protein” value was 26.6 nM. In the case of “UGGAUAAGGGUAAAUAGGAUAAGUACAGAAGGAGCGCGAAUAAACGCAGGUAGGUCGCUGGACAUGAGGAUCACCCAUGUAAAUG [Same State Arginine A GF 22]”, the “apparent KD of MS2 coat protein” value is reported as 48.8 nM. For “GAGUCCGCGGCGGCCGCCACUCGCGGCGCCACAUGGCGCCGGGACAUGAGGAUCACCCAUGUCCCGAGGACCGGGCCGAUCCUCA [Same State Typrtophan B GF4]”, the “apparent KD of MS2 coat protein” value was 18.1 nM. For “GGGUAUGAUCCGGAUACCAGCGAACAUGAGGAUCACCCAUGUGACCUAAGAUAGGCUCUACGCCCUUGGCAGCCGCGAUCGCAGA [Same State Theophylline B GF9]”, the “apparent KD of MS2 coat protein” value was 22.3 nM. For “AUGCAUAUCAGAAGGAGCGUCUUUAACAUGAGGAUCACCCAUGUAACAUUGAAUUCGAUGAGACAGGUAGGUCGCUGAAUAGUAA [SS-ArgB24]”, the “apparent KD of MS2 coat protein” value was 33.7 nM. In the case of “ACCUGUACGAAAAGUGCAGGACACGGAAUACGAGGACCGGUACGGCCGCCACUCGGAUAAAACCUGAGGAUCACCCUGGUCCGUG [TrypAS 14 #AlternativeMS2 #Zipper #StaticStem]”, the “apparent KD of MS2 coat protein” value is reported as 24.6 nM. In the case of “GAUUGGUAUAGAAGGAGCGUCGAAAAUGGGUAAACAUGAGGAUCACCCAUGUAAAGGGAACGACAGGUAGGUCGCUAUAUUAAUC [AstromonsSSArgB#30]”, the “apparent KD of MS2 coat protein” value is reported as 174 nM. In the case of “CAGAACAUGAGGAUCACCCAUGUUAGGGAUACCAGCUCAGACAUGGGCCCUUGGCAGCUCUAUGGCUGACGAAAGUCAGCAUCUG [#16 SameState-TheophyllineA]”, the “apparent KD of MS2 coat protein” value is reported as 41.7 nM. For “GGAUAGGACAGAAGGAGCGGCAUGGCAGAAACUGCAAUCCUCCUACACGAGGAUCACCCGUGUCAGGUAGGUCGCUGUCCUAUCG [ArgXB 13 #Zipper #MS2Left #StaticStem #Blueprint]”, the “apparent KD of MS2 coat protein” value was 15.1 nM. For “ACAUGAGGAUCACCCAUGUAUUACCGGGAAGGAGCGCGUAAGGACGCAGGUAGGUCGCUCGGCGUCGUGCCGGAAGGCACGACGA [#1 Same State - Arginine A Attempt #22 (HarryS)]”, the “apparent KD of MS2 coat protein” value was 13.6 nM. “GUCCGCAGCCGAAGGAGCGCUAGAAGGUGACAUGAGGAUCACCCAUGUGUGUGAUGUGGCUAGCAGGUAGGUCGCGGAGCGGAUU [Exclusion - Arginine B (Freestyle 18)]” was tested, and the “apparent KD of MS2 coat protein” value was 59.2 nM.

Same assay, conditions: Eterna round: R107; input ligand: theophylline 20 uM
For “UCAUAUUAGAUAGAUGUAAGGUAUCAUGAUACCAGUAGAUAAUUAUACCCUUGGCAGCAUAACAUGAGGAUCACCCAUGUACAUG [Aa]”, the “apparent KD of MS2 coat protein” value was 22 nM. “UUGGGUUUGUGAAGGAGCGGGUAUGUUUUCUAGUGGAUCCUAACAUGAGGAUCACCCAUGUCCCAGGUAGGUCGCGCGGGUUUGG [12.U]” was tested, and the “apparent KD of MS2 coat protein” value was 227 nM. For “UGCCGAGACGUGGAUUACCCAUGUACAGAAGGAGCGCCCGAAAGGGCAGGUAGGUCGCUGAGGACAUGAGGAUCACCCAUGUCGA”, the “apparent KD of MS2 coat protein” value was 52 nM. With “UGUCAGCGAAAGUUGACAUGUCUUACCGGUCGAGGACCGGUACGGCCGCCACUCGAUCACUCGCACAUGAGGAUCACCCAUGUCG [SS Tryp A #20]” the “apparent KD of MS2 coat protein” value was 14.5 nM. For “ACGUAUGUCAGAAGGAGCGUCAAUAACAUGAGGAUCACCCAUGUAUUACAUAGGUAUAAUAGACAGGUAGGUCGCUGAAUUCGAA [JR_SSArginiB_Sub022]”, the “apparent KD of MS2 coat protein” value was 46.4 nM. In the case of “UUCUACAUGAGGAUCACCCAUGUGGGUGAUACCAGCACUUUUUGGUGCCCUUGGCAGCACAUGAGAAUGCCGUAAAAUCGGCGAU [Ceanteis]”, the “apparent KD of MS2 coat protein” value is reported as 577 nM. For “GCUACAUGAGGAUCACCCAUGUGUACUGAAGGAGCGGCGGAAACGCCAGGUAGGUCGCAGUAUGUGGCUCUGGGCACGAGAUGGC [SSAA NP+V+V2 #1]”, the “apparent KD of MS2 coat protein” value was 39.4 nM. With “UAUAACAUGAGGAUCACCCAUGUAAGUGAUACCAGAUAAAUAAUAGUCCCUUGGCAGCAUAUUGGGAAAGUGUAUAAUAUAUAUU [Same State - Theophylline A (Freestyle 2)]” the “apparent KD of MS2 coat protein” value was 66.1 nM. “AUGGUAAGAACAUGAGGAUCACCCAUGUGACGAGGACCGGUACGGCCGCCACUCGUACCUUAGUCGUCGAACAGAGGAUUCAUGU [Trypt A-MS2@10]” was tested, and the “apparent KD of MS2 coat protein” value was 138 nM. With “ACGUCAUGGAGAACGUGACGACUUGUCGAUACCAGUGUUUGAUAGCGCCCUUGGCAGCGAACAUGAGGAUCACCCAUGUCAAGGG [#11 SameState-TheophyllineA]” the “apparent KD of MS2 coat protein” value was 84.6 nM. “GAGACAUCGGGAAGGAGCGCAUCCAAACCACACAUGAGGAUCACCCAUGUAUAAAUAUGCAUGCAGGUAGGUCGCCCGGUAUCCC [Tiisqure]” was tested, and the “apparent KD of MS2 coat protein” value was 40.2 nM. With “CCUAUGCAGUCGGCCGCCACUGAGUCCUCAAUAAUAAAUUAUUAUACAUGAGGAUCACCCAUGUACAGGACCGGGACUGUAUAGG [Ex Tryptophan B 14]” the “apparent KD of MS2 coat protein” value was 244 nM. For “CACGAAAGAUCGGCCGCCACUAGCCUGUGUGUACUAGCACAUGAGGAUCACCCAUGUUCUUGCGUUAGGACCGGGAUUGAGCGUG [#05 Exclusion Tryptophan B]”, the “apparent KD of MS2 coat protein” value was 27.9 nM. For “CAGUCAGUCAGUCAAUGAGUGAGGCAUGAAGGAGCGUGGGAAACCACAGGUAGGUCGCAUGCGAAACAUGAGGAUCACCCAUGUU [SSArg A #3]”, the “apparent KD of MS2 coat protein” value was 42.5 nM. With “GACGCAUGAGUUGUAAAAGCUCAUGGGUCGCGAGGACCGGUACGGCCGCCACUCGGCUGUACAUGAGGAUCACCCAUGUCAGGGU [#1 Same State - Tryptophan A Attempt #28 (HarryS)]” the “apparent KD of MS2 coat protein” value was 434 nM. For “UUAAUCUUGGUUGAAAACAAUUAAGCAGAAGGAGCGUGAUAAAACACAGGUAGGUCGCUGAAGGGAACAUGAGGAUCACCCAUGU [AstrosSSArgA#14]”, the “apparent KD of MS2 coat protein” value was 41.1 nM. “UUUUAACAUGAGGAUCACCCAUGUAAUGAUACCAGAGACGAAAGUCUCCCUUGGCAGCAUAAUCAUUACAUGAGAUGGAAACAUC [Theophylline A 7]” was tested, and the “apparent KD of MS2 coat protein” value was 48.5 nM. “UGGAUAAGGGUAAAUAGGAUAAGUACAGAAGGAGCGCGAAUAAACGCAGGUAGGUCGCUGGACAUGAGGAUCACCCAUGUAAAUG [Same State Arginine A GF 22]” was tested, and the “apparent KD of MS2 coat protein” value was 77.1 nM. In the case of “ACGACGGCUGCGGCCGCCACUGUACAUGAGGAUCACCCAUGUGUAGUAAUUGGGACCCUGUGUUACAGGACCGGGUAGUUGAUUA [Orquteer]”, the “apparent KD of MS2 coat protein” value is reported as 49 nM.
